Source: the supplement of paper PMC10567573

B1: GOLPH3 (parent)
chain: FAPLLDEQYDLATKRVRQLLDLDP

Variants of: B1
Experiment: protein stability index of a GFP-peptide fusion (GPS, HEK-293T) (PSI 1-6); higher = more stable
Details: c terminus: a fixed tail appended
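Also: lentivirally expressed fusions sorted by FACS into six bins by GFP to DsRed ratio, PSI derived from sequencing read proportions per bin multiplied by bin number.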

Protein stability index: each site, then its substitutions
R15: H 2.04, I 2.01, K 1.93, L 2.24, M 1.99, N 2.3, P 2.48, Q 2.11, S 1.8, T 1.76, V 2.35, W 1.61, Y 1.51
V16: A 2.12, C 2.09, D 2.02, E 3.32, G 2.75, H 1.65, I 2.19, K 1.54, L 1.51, M 1.96, N 2, P 2.45, Q 2.4, R 1.82, S 1.74, T 2.59, W 1.37, Y 2.58
R17: A 2.37, C 2.14, D 3.1, E 2.41, F 1.93, G 2.45, H 1.87, I 2.22, K 1.8, L 2.13, M 2.27, N 2.83, P 2.45, Q 2.77, S 2.61, T 2.11, V 2.03, Y 1.74
Q18: A 2.52, C 1.38, D 2.43, E 2.06, F 2.67, G 2.08, H 2.47, I 2.34, K 2.18, L 2.52, M 2.02, N 2.2, P 2.04, R 1.44, S 2.11, T 2.21, V 2.99, W 2.36, Y 1.74
L19: A 2.7, C 1.49, D 3.22, E 2.58, F 1.63, G 2.26, H 2.09, I 2.46, K 2.14, M 1.78, N 1.89, P 2.65, Q 2.24, R 1.65, S 2.21, T 2.61, V 2.33, W 2.27, Y 1.85
L20: A 2.92, C 2.27, D 2.34, E 2.76, F 1.83, G 2.42, H 1.98, I 2.59, K 2.59, M 2.3, N 2.25, P 3.2, Q 2.24, R 1.91, S 2.53, T 2.27, V 1.94, W 2.11, Y 1.94
D21: A 1.47, E 2.08, F 3.68, G 2.29, H 1.55, I 1.45, K 1.64, L 2.1, M 1.85, N 2.12, P 1.48, Q 2.1, R 1.55, S 1.95, T 1.9, V 2.79, W 2.22, Y 1.88
L22: A 3.04, C 1.95, D 2.75, E 3.16, F 2.61, G 2.58, H 2.55, I 2.45, K 2.27, M 2.58, N 2.46, P 2.06, Q 2.5, R 2.26, S 2.29, T 2.21, V 2.2, W 1.83, Y 2.29
D23: A 2.07, C 2.41, E 1.87, G 2.65, H 1.69, I 1.62, K 1.78, L 2.01, M 1.53, N 2.85, P 1.8, Q 2.11, R 2.72, S 1.85, T 1.94, V 1.6, W 3.32, Y 2.12
P24: A 1.81, C 2.36, D 1.87, E 2.46, F 3.43, G 2.28
